# Source: US20030224992A1, “Transcription factor modulators and uses thereof” (Praecis Pharmaceuticals Inc., priority 2002, published 2003)
# Like-named read-outs stand apart in the source and are kept apart here.
# Assays:
# [1] = biological target: T1, Androgen receptor DNA binding domain (GST-ARDBD) (UniProt P10275 P10275:560-632); assay: FP; scrambled MPS control, competition with FAM-ARE; details: tags: GST fusion; chain copies: 2
# [2] = biological target: T1, Androgen receptor DNA binding domain …; assay: FP; labelled probe, 1 nM with 50 nM GST-ARDBD; details: tags: GST fusion; chain copies: 2; label: 5'-FAM on top strand
# [3] = biological target: T1, Androgen receptor DNA binding domain …; assay: FP; competition with 1 nM FAM-ARE, 50 nM GST-ARDBD; room temperature; details: tags: GST fusion; chain copies: 2
# [4] = biological target: T1, Androgen receptor DNA binding domain …; details: tags: GST fusion; chain copies: 2
# [5] = biological target: T1, Androgen receptor DNA binding domain …; assay: FP; scrambled control, competition with FAM-ARE; details: tags: GST fusion; chain copies: 2
# T1 sequence (P10275 560-632, one chain of several): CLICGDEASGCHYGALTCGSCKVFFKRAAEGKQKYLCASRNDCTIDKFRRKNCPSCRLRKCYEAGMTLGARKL
binder,measurement,setting,value
"AREsc-MPS scrambled (dsDNA, membrane permeable peptide Ac-…-NH2 conjugate) DNA 1: AGTCTACGAGTGGGGTTCTTTTTTA DNA 2: TAAAAAAGAACCCCACTCGTAGACT",binding result,[1],no binding
FAM-ARE duplex (dsDNA) DNA 1: AGTCTGGTACAGGGTGTTCTTTTTA DNA 2: TAAAAAGAACACCCTGTACCAGACT,binding result,[2],binds
"ARE-MPS duplex (dsDNA, membrane permeable peptide Ac-…-NH2 conjugated at 5' of top strand) DNA 1: AGTCTGGTACAGGGTGTTCTTTTTA DNA 2: TAAAAAGAACACCCTGTACCAGACT",binding result,[3],binds
ARE duplex (dsDNA) DNA 1: AGTCTGGTACAGGGTGTTCTTTTTA DNA 2: TAAAAAGAACACCCTGTACCAGACT,binding result,[4],binds
AREsc scrambled (dsDNA) DNA 1: AGTCTACGAGTGGGGTTCTTTTTTA DNA 2: TAAAAAAGAACCCCACTCGTAGACT,binding result,[5],no binding
